Biological target: OmpK36 (UniProt Q48473)
Experiment: crystal structure; laser-shaped cylindrical crystal, S-SAD at a wavelength of 4.13 Å, resolution limited to 2.7 Å

OmpK36 (from UniProt Q48473 22-363) (natural protein)
stoichiometry N: 3
